Measured values taken from PMC3498451.

Target: HIV-1 Gag-glutathione-S-transferase (GST) fusion protein, wild type (HIV-1)
Assay: cross-linking + pull-down

B1: 2',3'-cyclic-nucleotide 3'-phosphodiesterase (CNP), human, wild type (natural protein)
chain: MNRGFSRKSHTFLPKIFFRKMSSSGAKDKPELQFPFLQDEDTVATLLECKTLFILRGLPGSGKSTLARVIVDKYRDGTKMVSADAYKITPGARGAFSEEYKRLDEDLAAYCRRRDIRILVLDDTNHERERLEQLFEMADQYQYQVVLVEPKTAWRLDCAQLKEKNQWQLSADDLKKLKPGLEKDFLPLYFGWFLTKKSSETLRKAGQVFLEELGNHKAFKKELRQFVPGDEPREKMDLVTYFGKRPPGVLHCTTKFCDYGKAPGAEEYAQQDVLKKSYSKAFTLTISALFVTPKTTGARVELSEQQLQLWPSDVDKLSPTDNLPRGSRAHITLGCAADVEAVQTGLDLLEILRQEKGGSRGEEVGELSRGKLYSLGNGRWMLTLAKNMEVRAIFTGYYGKGKPVPTQGSRKGGALQSCTII
stoichiometry N: 1 CNP:Gag-GST
